Assay results taken from PMC4770077.

Legend:
Experiment in all cases: BLI; biotinylated trimeric gp140 immobilised on streptavidin biosensors; Fabs 1-32 uM in solution; 30 C, 1,000 r.p.m.; kinetic buffer (1X PBS, 0.01% BSA, 0.02% Tween 20, 0.005% NaN3); association 4 min, dissociation 8 min; 1:1 binding model; mean of curves with R2 >= 0.95
[1] = biological target: 426c.TM4ΔV1-3 soluble trimeric gp140 (426c S278R N460D N463D G471S ΔV1 V2 V3) (HIV-1 (clade C, 426c))
[2] = biological target: 426c.TM5ΔV1-3 soluble trimeric gp140 (426c N276D S278R N460D N463D G471S ΔV1 V2 V3) (HIV-1 (clade C, 426c))
[3] = biological target: 426c.TM3 soluble trimeric gp140 (426c S278R N460D N463D) (HIV-1 (clade C, 426c))
[4] = biological target: 426c.TM4 soluble trimeric gp140 (426c S278R N460D N463D G471S) (HIV-1 (clade C, 426c))
[5] = biological target: 426c.TM5 soluble trimeric gp140 (426c N276D S278R N460D N463D G471S) (HIV-1 (clade C, 426c))
[6] = biological target: 426c.TM2 soluble trimeric gp140 (426c S278A N460D N463D) (HIV-1 (clade C, 426c))
[7] = biological target: 426c.TM1 soluble trimeric gp140 (426c N276D N460D N463D) (HIV-1 (clade C, 426c))
[8] = biological target: 426c.TM1ΔV1-3 soluble trimeric gp140 (426c N276D N460D N463D ΔV1 V2 V3) (HIV-1 (clade C, 426c))

## germline 3BNC60 Fab
[1]
  Ka: 3490 M⁻¹
  koff: 0.398 s⁻¹
  kon: 1410 M⁻¹ s⁻¹
[2]
  Ka: 2180 M⁻¹
  koff: 0.477 s⁻¹
  kon: 1040 M⁻¹ s⁻¹

## germline 12A21 Fab
[3]
  Ka: 174000 M⁻¹
  koff: 0.279 s⁻¹
  kon: 48500 M⁻¹ s⁻¹
[1]
  Ka: 311000 M⁻¹
  koff: 0.0305 s⁻¹
  kon: 9470 M⁻¹ s⁻¹
[2]
  Ka: 30800 M⁻¹
  koff: 0.0515 s⁻¹
  kon: 1590 M⁻¹ s⁻¹
[4]
  Ka: 334000 M⁻¹
  koff: 0.168 s⁻¹
  kon: 56200 M⁻¹ s⁻¹
[5]
  Ka: 38500 M⁻¹
  koff: 0.403 s⁻¹
  kon: 15500 M⁻¹ s⁻¹
[6]
  Ka: 201000 M⁻¹
  koff: 0.274 s⁻¹
  kon: 55200 M⁻¹ s⁻¹

## germline VRC01 Fab
[3]
  Ka: 562000 M⁻¹
  koff: 0.064 s⁻¹
  kon: 36000 M⁻¹ s⁻¹
[1]
  Ka: 1.47e+06 M⁻¹
  koff: 0.00426 s⁻¹
  kon: 6250 M⁻¹ s⁻¹
[2]
  Ka: 1.06e+07 M⁻¹
  koff: 0.00065 s⁻¹
  kon: 6860 M⁻¹ s⁻¹
[7]
  Ka: 1.31e+06 M⁻¹
  koff: 0.0113 s⁻¹
  kon: 14800 M⁻¹ s⁻¹
[4]
  Ka: 1.08e+06 M⁻¹
  koff: 0.0264 s⁻¹
  kon: 28700 M⁻¹ s⁻¹
[5]
  Ka: 1.14e+07 M⁻¹
  koff: 0.00225 s⁻¹
  kon: 25600 M⁻¹ s⁻¹
[6]
  Ka: 628000 M⁻¹
  koff: 0.0579 s⁻¹
  kon: 36300 M⁻¹ s⁻¹
[8]
  Ka: 3.09e+06 M⁻¹
  koff: 0.00157 s⁻¹
  kon: 4840 M⁻¹ s⁻¹

## germline VRC-CH31 Fab
[2]
  Ka: 8950 M⁻¹
  koff: 0.24 s⁻¹
  kon: 2400 M⁻¹ s⁻¹

## germline VRC-PG19 Fab
[3]
  Ka: 2.24e+06 M⁻¹
  koff: 0.0442 s⁻¹
  kon: 98900 M⁻¹ s⁻¹
[1]
  Ka: 8.9e+06 M⁻¹
  koff: 0.0027 s⁻¹
  kon: 24100 M⁻¹ s⁻¹
[2]
  Ka: 8.93e+06 M⁻¹
  koff: 0.00216 s⁻¹
  kon: 19300 M⁻¹ s⁻¹
[7]
  Ka: 287000 M⁻¹
  koff: 0.14 s⁻¹
  kon: 40000 M⁻¹ s⁻¹
[4]
  Ka: 5.45e+06 M⁻¹
  koff: 0.018 s⁻¹
  kon: 98000 M⁻¹ s⁻¹
[5]
  Ka: 5.22e+06 M⁻¹
  koff: 0.016 s⁻¹
  kon: 83800 M⁻¹ s⁻¹
[6]
  Ka: 416000 M⁻¹
  koff: 0.172 s⁻¹
  kon: 71500 M⁻¹ s⁻¹
[8]
  Ka: 353000 M⁻¹
  koff: 0.0315 s⁻¹
  kon: 11100 M⁻¹ s⁻¹

## germline VRC-PG20 Fab
[3]
  Ka: 1.2e+07 M⁻¹
  koff: 0.00487 s⁻¹
  kon: 60500 M⁻¹ s⁻¹
[1]
  Ka: 3.84e+07 M⁻¹
  koff: 0.000511 s⁻¹
  kon: 24500 M⁻¹ s⁻¹
[2]
  Ka: 2.45e+08 M⁻¹
  koff: 0.000149 s⁻¹
  kon: 41200 M⁻¹ s⁻¹
[7]
  Ka: 1.4e+07 M⁻¹
  koff: 0.00343 s⁻¹
  kon: 49700 M⁻¹ s⁻¹
[4]
  Ka: 2.28e+07 M⁻¹
  koff: 0.00257 s⁻¹
  kon: 61100 M⁻¹ s⁻¹
[5]
  Ka: 1.78e+08 M⁻¹
  koff: 0.000553 s⁻¹
  kon: 112000 M⁻¹ s⁻¹
[6]
  Ka: 3.88e+06 M⁻¹
  koff: 0.0129 s⁻¹
  kon: 50900 M⁻¹ s⁻¹
[8]
  Ka: 1.24e+07 M⁻¹
  koff: 0.00104 s⁻¹
  kon: 13500 M⁻¹ s⁻¹
